B1: DnaJ homolog subfamily C member 5, residues 16 to 77; numbered along this chain, Q9H3Z4 (parent)
chain: LYHVLGLDKNATSDDIKKSYRKLALKYHPDKNPDNPEAADKFKEINNAHAILTDATKRNIYD
B2: Double-stranded RNA-binding protein Staufen homolog 1, residues 183 to 249; numbered along this chain, O95793 (parent)
chain: KSEISQVFEIALKRNLPVNFEVARESGPPHMKNFVTKVSVGEFVGEGEGKSKKISKKNAAIAVLEEL

Variants of: B1
Assay: abundance fitness (aPCA) (normalised: wild type 0, dead -1); higher = more abundant; growth selection in yeast, the domain comes from the species named
Conditions: Homo sapiens

Abundance fitness, by site and new letter:
H3: I -0.423, P -0.602, R -0.185, E -0.114, D -0.528, T -0.017, A -0.14, G -0.157, C -0.148, K -0.133, M -0.153, Q -0.116, Y -0.489, N -0.27, S 0.147, L -0.364, W -0.301, F -0.216
G6: D -0.046, C -0.466, W -1.02, L -0.625, R -0.488, A -0.485, P -0.799, Y -0.671, M -0.655, K -0.751, S -0.559, N 0.069, E -0.866, F -0.985, V -1.42
L5: S -0.267, R -0.889, M -0.32, Y -0.606, V -0.906, H 0.038, N 0.123, T -0.368, E -0.14, K -0.444, G -0.713, P -0.221, Q 0.084
K9: I -0.099, F -0.281, Y -0.163, G -0.215, Q -0.25, D -0.05, V -0.004, H -0.341, W -0.499, E 0.007, T -0.27, S -0.125, P -0.252, N -0.394, R -0.116, C -0.246, A 0.077, M -0.458
N10: H -0.493, D -0.343, F -0.371, A -0.293, E -0.343
D8: V -0.648, R -0.44, M -0.355, I -0.807, A -0.258, G -0.459, H -0.42, K -0.516, F -0.533, N -0.277, Q -0.019, P 0.108, Y -0.421, C -0.497, W -0.648, T -0.309, S -0.378
L1: I -0.084, N 0.262, T -0.542, C -0.284, R -0.741, M 0.022, G -0.539, F 0.197, S -0.198, E -0.14, K -0.269, A -0.124, W -0.352
V4: F -0.362, I -0.054, G -0.599, Y -0.553, S -0.259, P -0.733, T -0.209, N -0.15, E -0.374, Q -0.546, W -0.687, A 0.034, D -0.458, K -0.646, C -0.056, M -0.078, R -0.765, L -0.292
L7: R -0.608, Q -0.309, W -0.949, V -0.103, T -0.721, H -0.54, F -0.734, K -0.365, N -0.434, P -0.231, S -0.345, D -0.316, I -0.477, A -0.298, C -0.149, E -0.298, Y -1.01
Y2: K -0.692, T -0.357, C -0.686, F -0.394, H -0.492, R -0.922, S -0.516, D -0.18, G -0.28, L -0.653, A -0.496, V -0.873, E -0.098, Q -0.358, I -0.809, W -0.534, N -0.011, M -0.422

Variants of: B2
Assay: as above
Conditions: Homo sapiens

Abundance fitness, by site and new letter:
A59: D -0.718
S5: P -0.528
L67: K -0.53, G -0.438, M 0
G27: T -0.309, V -0.457, I -0.223, E -0.339, Q -0.259, W -0.48, A -0.239
K50: S -0.007, N 0.009, M -0.117

Source: the Human Domainome abundance scans (Beltran et al. 2025)
